{
  "source": "IntAct's records for PubMed 28620713",
  "parents": {"B1": {"name": "Cytochrome P450 1B1 (Homo sapiens), Q16678 (parent)", "chain": "MGTSLSPNDPWPLNPLSIQQTTLLLLLSVLATVHVGQRLLRQRRRQLRSAPPGPFAWPLIGNAAAVGQAAHLSFARLARRYGDVFQIRLGSCPIVVLNGERAIHQALVQQGSAFADRPAFASFRVVSGGRSMAFGHYSEHWKVQRRAAHSMMRNFFTRQPRSRQVLEGHVLSEARELVALLVRGSADGAFLDPRPLTVVAVANVMSAVCFGCRYSHDDPEFRELLSHNEEFGRTVGAGSLVDVMPWLQYFPNPVRTVFREFEQLNRNFSNFILDKFLRHCESLRPGAAPRDMMDAFILSAEKKAAGDSHGGGARLDLENVPATITDIFGASQDTLSTALQWLLLLFTRYPDVQTRVQAELDQVVGRDRLPCMGDQPNLPYVLAFLYEAMRFSSFVPVTIPHATTANTSVLGYHIPKDTVVFVNQWSVNHDPLKWPNPENFDPARFLDKDGLINKDLTSRVMIFSVGKRRCIGEELSKMQLFLFISILAHQCDFRANPNEPAKMNFSYGLTIKPKSFKVNVTLRESMELLDSAVQNLQAKETCQ"}},
  "data": [
    {"variants_of": "B1", "conditions": "with tie2_human TEK", "values": [
      {"variant": "MGTSLSPNDPWPLNPLSIQQTTLLLLLSVLATVHVGQRLLRQRRRQLRSAPPGPFAWPLIGNAAAVGQAAHLSFARLARRYGDVFQIRLGSCPIVVLNGERAIHQALVQQGSAFPDRPAFASFRVVSGGRSMAFGHYSEHWKVQRRAAHSMMRNFFTRQPRSRQVLEGHVLSEARELVALLVRGSADGAFLDPRPLTVVAVANVMSAVCFGCRYSHDDPEFRELLSHNEEFGRTVGAGSLVDVMPWLQYFPNPVRTVFREFEQLNRNFSNFILDKFLRHCESLRPGAAPRDMMDAFILSAEKKAAGDSHGGGARLDLENVPATITDIFGASQDTLSTALQWLLLLFTRYPDVQTRVQAELDQVVGRDRLPCMGDQPNLPYVLAFLYEAMRFSSFVPVTIPHATTANTSVLGYHIPKDTVVFVNQWSVNHDPLKWPNPENFDPARFLDKDGLINKDLTSRVMIFSVGKRRCIGEELSKMQLFLFISILAHQCDFRANPNEPAKMNFSYGLTIKPKSFKVNVTLRESMELLDSAVQNLQAKETCQ", "note": "[A115P]", "effect of a mutation on the interaction": "disrupting interaction strength"},
      {"variant": "MGTSLSPNDPWPLNPLSIQQTTLLLLLSVLATVHVGQRLLRQRRRQLRSAPPGPFAWPLIGNAAAVGQAAHLSFARLARRYGDVFQIRLGSCPIVVLNGERAIHQALVQQGSAFADRPAFASFRVVSGGRSMAFGHYSEHWKVQRRAAHSMMRNFFTRQPRSRQVLEGHVLSEARELVALLVRGSADGAFLDPRPLTVVAVANVMSAVCFGCRYSHDDPEFRELLSHNEEFGRTVGAGSLVDVMPWLQYFPNPVRTVFREFEQLNRNFSNFILDKFLRHCESLRPGAAPRDMMDAFILSAEKKAAGDSHGGGARLDLENVPATITDIFGASQDTLSTALQWLLLLFTRYPDVQTRVQAELDQVVGRDHLPCMGDQPNLPYVLAFLYEAMRFSSFVPVTIPHATTANTSVLGYHIPKDTVVFVNQWSVNHDPLKWPNPENFDPARFLDKDGLINKDLTSRVMIFSVGKRRCIGEELSKMQLFLFISILAHQCDFRANPNEPAKMNFSYGLTIKPKSFKVNVTLRESMELLDSAVQNLQAKETCQ", "note": "[R368H]", "effect of a mutation on the interaction": "decreasing interaction strength"}
    ]},
    {"variants_of": "B1", "conditions": "with tie2_human TEK", "remark": "another data set of the same source", "values": [
      {"variant": "MGTSLSPNDPWPLNPLSIQQTTLLLLLSVLATVHVGQRLLRQRRRQLRSAPPGPFAWPLIGNAAAVGQAAHLSFARLARRYGDVFQIRLGSCPIVVLNGERAIHQALVQQGSAFADRPAFASFRVVSGGRSMAFGHYSEHWKVQRRAAHSMMRNFFTRQPRSRQVLEGHVLSEARELVALLVRGSADGAFLDPRPLTVVAVANVMSAVCFGCRYSHDDPEFRELLSHNKEFGRTVGAGSLVDVMPWLQYFPNPVRTVFREFEQLNRNFSNFILDKFLRHCESLRPGAAPRDMMDAFILSAEKKAAGDSHGGGARLDLENVPATITDIFGASQDTLSTALQWLLLLFTRYPDVQTRVQAELDQVVGRDRLPCMGDQPNLPYVLAFLYEAMRFSSFVPVTIPHATTANTSVLGYHIPKDTVVFVNQWSVNHDPLKWPNPENFDPARFLDKDGLINKDLTSRVMIFSVGKRRCIGEELSKMQLFLFISILAHQCDFRANPNEPAKMNFSYGLTIKPKSFKVNVTLRESMELLDSAVQNLQAKETCQ", "note": "[E229K]", "effect of a mutation on the interaction": "disrupting interaction strength"}
    ]},
    {"variants_of": "B1", "conditions": "with tie2_human TEK", "remark": "another data set of the same source", "values": [
      {"variant": "MGTSLSPNDPWPLNPLSIQQTTLLLLLSVLATVHVGQRLLRQRRRQLRSAPPGPFAWPLIGNAAAVGQAAHLSFARLARRYGDVFQIRLGSCPIVVLNGERAIHQALVQQGSAFADRPAFASFRVVSGGRSMAFGHYSEHWKVQRRAAHSMMRNFFTRQPRSRQVLEGHVLSEARELVALLVRGSADGAFLDPRPLTVVAVANVMSAVCFGCRYSHDDPEFRELLSHNKEFGRTVGAGSLVDVMPWLQYFPNPVRTVFREFEQLNRNFSNFILDKFLRHCESLRPGAAPRDMMDAFILSAEKKAAGDSHGGGARLDLENVPATITDIFGASQDTLSTALQWLLLLFTRYPDVQTRVQAELDQVVGRDRLPCMGDQPNLPYVLAFLYEAMRFSSFVPVTIPHATTANTSVLGYHIPKDTVVFVNQWSVNHDPLKWPNPENFDPARFLDKDGLINKDLTSRVMIFSVGKRRCIGEELSKMQLFLFISILAHQCDFRANPNEPAKMNFSYGLTIKPKSFKVNVTLRESMELLDSAVQNLQAKETCQ", "note": "[E229K]", "effect of a mutation on the interaction": "with no effect"}
    ]}
  ]
}
